Data: patent US20240270846A1 (published 2024)
Residue numbers refer to the chain shown, from its start. Names may count otherwise.

B1: CE115HA000 Y100P one-arm antibody (antibody, human IgG1, kappa, L234A L235A, N297A, name in Kabat numbering)
heavy: QVQLVESGGGVVQPGRSLRLSCAASGFTFSNAWMHWVRQAPGKGLEWVAQIKAKSNNYATYYAESVKGRFTISRDDSKNSLYLQMNSLKTEDTAVYYCRYVHYGAPYGVDAWGQGTTVTVSSASTKGPSVFPLAPSSKSTSGGTAALGCLVKDYFPEPVTVSWNSGALTSGVHTFPAVLQSSGLYSLSSVVTVPSSSLGTQTYICNVNHKPSNTKVDKKVEPKSCDKTHTCPPCPAPEAAGGPSVFLFPPKPKDTLMISRTPEVTCVVVDVSHEDPEVKFNWYVDGVEVHNAKTKPREEQYASTYRVVSVLTVLHQDWLNGKEYKCKVSNKALPAPIEKTISKAKGQPREPQVYTLPPSRCELTKNQVSLSCAVKGFYPSDIAVEWESNGQPENNYKTTPPVLDSDGSFFLVSKLTVDKSRWQQGNVFSCSVMHEALHNHYTQKSLSLSPDYKDDDDK
chain: EPKSSDKTHTCPPCPAPELLGGPSVFLFPPKPKDTLMISRTPEVTCVVVDVSHEDPEVKFNWYVDGVEVHNAKTKPREEQYNSTYRVVSVLTVLHQDWLNGKEYKCKVSNKALPAPIEKTISKAKGQPREPQVCTLPPSRDELTKNQVSLWCLVKGFYPSDIAVEWESNGQPENNYKTTPPVLDSDGSFFLYSKLTVDKSRWQQGNVFSCSVMHEALHNRYTQKSLSLSP
light: DIVMTQSPLSLPVTPGEPASISCRSSQSLVHSNRNTYLHWYQQKPGQAPRLLIYKVSNRFSGVPDRFSGSGSGTDFTLKISRVEAEDVGVYYCGQGTQVPYTFGQGTKLEIKRTVAAPSVFIFPPSDEQLKSGTASVVCLLNNFYPREAKVQWKVDNALQSGNSQESVTEQDSKDSTYSLSSTLTLSKADYEKHKVYACEVTHQGLSSPVTKSFNRGEC
notes: one-arm antibody
B2: CE115HA000 Y100Q one-arm antibody (antibody, human IgG1, kappa, L234A L235A, N297A, name in Kabat numbering)
heavy: B1 heavy with P106Q
chain: B1 chain
light: B1 light
notes: one-arm antibody
B3: CE115HA000 Y100S one-arm antibody (antibody, human IgG1, kappa, L234A L235A, N297A, name in Kabat numbering)
heavy: B1 heavy with P106S
chain: B1 chain
light: B1 light
notes: one-arm antibody
B4: CE115HA000 Y100V one-arm antibody (antibody, human IgG1, kappa, L234A L235A, N297A, name in Kabat numbering)
heavy: B1 heavy with P106V
chain: B1 chain
light: B1 light
notes: one-arm antibody
B5: CE115HA000 Y100W one-arm antibody (antibody, human IgG1, kappa, L234A L235A, N297A, name in Kabat numbering)
heavy: B1 heavy with P106W
chain: B1 chain
light: B1 light
notes: one-arm antibody
B6: CE115HA000 Y100aA one-arm antibody (antibody, human IgG1, kappa, L234A L235A, N297A, name in Kabat numbering)
heavy: B1 heavy with P106Y, Y107A
chain: B1 chain
light: B1 light
notes: one-arm antibody
B7: CE115HA000 Y100aD one-arm antibody (antibody, human IgG1, kappa, L234A L235A, N297A, name in Kabat numbering)
heavy: B1 heavy with P106Y, Y107D
chain: B1 chain
light: B1 light
notes: one-arm antibody
B8: CE115HA000 Y100aF one-arm antibody (antibody, human IgG1, kappa, L234A L235A, N297A, name in Kabat numbering)
heavy: B1 heavy with P106Y, Y107F
chain: B1 chain
light: B1 light
notes: one-arm antibody
B9: CE115HA000 Y100aG one-arm antibody (antibody, human IgG1, kappa, L234A L235A, N297A, name in Kabat numbering)
heavy: B1 heavy with P106Y, Y107G
chain: B1 chain
light: B1 light
notes: one-arm antibody
B10: CE115HA000 Y100aK one-arm antibody (antibody, human IgG1, kappa, L234A L235A, N297A, name in Kabat numbering)
heavy: B1 heavy with P106Y, Y107K
chain: B1 chain
light: B1 light
notes: one-arm antibody

These binders were tested against T1, CD3 epsilon homodimer protein (UniProt P07766 23-126) (assay: SPR (Biacore T200), CD3 epsilon homodimer on CM4 chip, one-arm antibody as analyte; ratio to unaltered CE115HA000;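 note: surface plasmon resonance run at 25 °C with HBS-EP+ as running buffer, CD3 epsilon homodimer attached by amine coupling, antibody passed over as analyte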).
T1 construct: Construct of the homodimer protein is not described; also called CD3 (CD3 epsilon)
T1 sequence (P07766 23-126): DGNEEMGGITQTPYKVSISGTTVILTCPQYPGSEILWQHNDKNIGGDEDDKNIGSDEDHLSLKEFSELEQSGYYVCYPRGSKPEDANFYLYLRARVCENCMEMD

Row | Binder | KD ratio (KD value of CE115HA000/KD value of the altered form)
1 | B1 | 1.3
2 | B2 | 0.77
3 | B3 | 0.7
4 | B4 | 0.92
5 | B5 | 0.96
6 | B6 | 0.66
7 | B7 | 1.2
8 | B8 | 0.98
9 | B9 | 1.01
10 | B10 | 0.79
